Patent US20180339043A1 (JANUX THERAPEUTICS, published 2018)
Primed or numbered codes have the meaning given here. Ends that are not written are not given here. Biotin′ = not defined here

T1: Peptide 15 with C-terminal biotin (Example 13) (not fully specified; cysteine pairing not given here)
T1 peptide: GGPCNQVECHHQFT-{Biotin′}

B1: Peptide 22 (peptide)
peptide: GGMCHELFYSNLNWCQ
modifications: cysteine pairing not given here; also: biotinylated
notes: chemically synthesized biotinylated peptide
B2: Peptide 29 (peptide)
peptide: GGLCSTFYEPQVDICY
modifications: cysteine pairing not given here; also: biotinylated
notes: as for B1
B3: Peptide 20 (peptide)
peptide: QLFYPSTYHIID
modifications: also: biotinylated
notes: as for B1
B4: Peptide 23 (peptide)
peptide: GGHCVDMVDFYQQTCQ
modifications: cysteine pairing not given here; also: biotinylated
notes: Chemically synthesized biotinylated peptide; also called 23 (Control)
B5: Peptide 24 (peptide)
peptide: GGCHNKSGLFYHYC
modifications: cysteine pairing not given here; also: biotinylated
notes: as for B1
B6: anti-mouse CTLA-4 (clone 9D9) Fab fragment (Fab, V domains shown)
VH: EAKLQESGPVLVKPGASVKMSCKASGYTFTDYYMNWVKQSHGKSLEWIGVINPYNGDTSYNQKFKGKATLTVDKSSSTAYMELNSLTSEDSAVYYCARYYGSWFAYWGQGTLITVST
VL: DIVMTQTTLSLPVSLGDQASISCRSSQSIVHSNGNTYLEWYLQKPGQSPKLLIYKVSNRFSGVPDRFSGSGSGTDFTLKISRVEAEDLGVYYCFQGSHVPYTFGGGTKLEIKR
notes: Monovalent Fab fragment of 9D9; also called mCTLA-4 Fab; a-mCTLA-4 Fab

These binders were tested against T2, PD-L1 antibody (assay: dissociation ELISA: PD-L1 antibody dilution series on immobilised biotinylated peptide, incubation at pH 7.2).
T2 construct: also called anti-PD-L1

Row | EC50 [nM] | Binder
1 | 0.045 | B1
2 | 0.23 | B2
3 | 0.13 | B3
4 | 0.3 | B4
5 | 0.2 | B5

These binders were tested against T2, PD-L1 antibody (assay: dissociation ELISA: PD-L1 antibody dilution series on immobilised biotinylated peptide).

Row | pH 5.4: pH 7.2 EC 50 ratio | pH 6.0: pH 7.2 EC 50 ratio | Binder
6 | 7.8 | 1.5 | B1
7 | 6.5 | 2.1 | B2
8 | 6.7 | 1.7 | B3
9 | 12.9 | 4.3 | B4
10 | 6.6 | 2.8 | B5

Each binder was assayed against T2, PD-L1 antibody (assay: dissociation ELISA: PD-L1 antibody dilution series on immobilised biotinylated peptide, incubation at pH 6.0).

Row | EC50 [nM] | Binder
11 | 0.07 | B1
12 | 0.49 | B2
13 | 0.21 | B3
14 | 1.3 | B4
15 | 0.56 | B5

Target: T1, Peptide 15 with C-terminal biotin …
Assay: ELISA, biotinylated Peptide 15 on Neutravidin, Fab titrated at pH 7.4 (Example 13)
Description: After washing in PBS-T, mCTLA-4 Fab diluted in either pH 7.4 Binding Buffer (50 mM sodium phosphate+150 mM NaCl+0.5% BSA+0.05% Tween-20, pH 7.4) or pH 6.0 Binding Buffer (50 mM sodium phosphate+150 mM NaCl+0.5% BSA+0.05% Tween-20, pH 6.0) was captured for 1 hour. After capture, wells were washed with either pH 7.4 Binding Buffer or pH 6.0 Binding Buffer, followed by additional 5-minute incubation with the appropriate pH Binding Buffer. Detection was performed with HRP conjugated goat anti-mouse IgG H+L (Southern Biotech.) for 1 hour at 1/2000 dilution in PBS-T+0.5% BSA followed by TMB (3-minute development) with acid stop. […] Data is expressed as mean+SD. All ELISA steps were performed at room temperature.

Row | EC50 (read off the curve) [nM] | Binder
16 | ~200 | B6

The binders below were run against T2, PD-L1 antibody (assay: dissociation ELISA: PD-L1 antibody dilution series on immobilised biotinylated peptide, incubation at pH 5.4).

Row | EC50 [nM] | Binder
17 | 0.35 | B1
18 | 1.5 | B2
19 | 0.84 | B3
20 | 3.9 | B4
21 | 1.3 | B5

These binders were tested against T3, anti-mouse CTLA-4 antibody (clone 9D9) (assay: competition ELISA: 0.3 nM anti-CTLA Ab / 30 min with peptide, then on mouse CTLA-4 (Example 11); competitor mouse CTLA-4).
T3 construct: also called 9D9 antibody; anti-CTLA4
Description: (§1) Following this incubation the peptide-antibody complexes were transferred to mouse CTLA-4 coated and blocked ELISA plates and incubated further. Following a brief binding period the plates were washed and target bound antibody was detected by either anti-mouse Fc or anti-mouse kappa chain HRP conjugated antibodies using standard TMB-based chromogenic ELISA procedures. The effects of competition were determined by standard IC50 analysis.

Row | binding result | Binder
22 | binds | GGCQIHDPHTWHLC [Peptide 19]
23 | binds | GGCPSLHPQWIHVC [Peptide 16]

What follows are binders tested against T3, anti-mouse CTLA-4 antibody (clone 9D9) (assay: competition ELISA: 0.3 nM anti-CTLA Ab / 30 min with peptide, then on mouse CTLA-4 (Example 11)).
Description: as §1

Row | binding result | Binder
24 | no binding (tested: 50 uM) | B4
